Results: publication PMC2475631

T1: MRF4;E47 (Rattus norvegicus;Mus musculus, UniProt P19335;P15806-2 1-242;1-648, |)
T1 sequence 1: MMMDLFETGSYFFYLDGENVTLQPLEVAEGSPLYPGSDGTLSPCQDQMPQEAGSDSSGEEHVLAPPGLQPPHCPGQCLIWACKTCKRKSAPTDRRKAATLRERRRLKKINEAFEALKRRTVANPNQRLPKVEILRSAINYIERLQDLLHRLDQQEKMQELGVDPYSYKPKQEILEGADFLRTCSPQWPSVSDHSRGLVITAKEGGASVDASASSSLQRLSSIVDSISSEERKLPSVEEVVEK
T1 sequence 2: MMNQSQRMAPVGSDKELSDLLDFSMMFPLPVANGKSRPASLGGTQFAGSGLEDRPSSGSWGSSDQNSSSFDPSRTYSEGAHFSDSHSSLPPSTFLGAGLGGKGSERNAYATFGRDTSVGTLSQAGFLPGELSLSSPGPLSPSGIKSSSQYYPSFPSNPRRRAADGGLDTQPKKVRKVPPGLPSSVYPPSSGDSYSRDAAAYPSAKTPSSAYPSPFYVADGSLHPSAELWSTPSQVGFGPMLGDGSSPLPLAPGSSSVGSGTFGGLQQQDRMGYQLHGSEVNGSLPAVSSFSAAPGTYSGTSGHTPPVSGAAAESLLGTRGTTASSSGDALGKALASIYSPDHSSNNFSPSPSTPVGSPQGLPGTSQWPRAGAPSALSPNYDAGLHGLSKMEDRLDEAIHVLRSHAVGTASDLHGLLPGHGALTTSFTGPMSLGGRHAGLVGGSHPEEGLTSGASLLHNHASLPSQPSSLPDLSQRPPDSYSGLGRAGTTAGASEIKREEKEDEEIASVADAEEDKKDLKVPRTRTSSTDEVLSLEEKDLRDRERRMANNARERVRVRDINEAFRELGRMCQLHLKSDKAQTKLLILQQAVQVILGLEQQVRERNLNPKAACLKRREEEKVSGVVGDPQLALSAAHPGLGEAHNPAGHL

T2: Myogenin/MyoDb chimera (Rattus norvegicus; Mus musculus basic …, UniProt P20428 1-73+P10085:102-121+94-287, internal_change)
T2 sequence: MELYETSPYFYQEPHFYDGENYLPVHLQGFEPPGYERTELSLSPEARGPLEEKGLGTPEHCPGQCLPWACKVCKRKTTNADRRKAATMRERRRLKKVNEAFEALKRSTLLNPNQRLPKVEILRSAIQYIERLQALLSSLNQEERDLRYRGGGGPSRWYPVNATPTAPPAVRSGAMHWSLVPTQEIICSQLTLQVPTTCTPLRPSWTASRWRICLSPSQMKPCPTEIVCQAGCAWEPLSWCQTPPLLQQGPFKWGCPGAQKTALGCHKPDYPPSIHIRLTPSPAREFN

T3: Myogenin (Rattus norvegicus, UniProt P20428 1-287)
T3 sequence: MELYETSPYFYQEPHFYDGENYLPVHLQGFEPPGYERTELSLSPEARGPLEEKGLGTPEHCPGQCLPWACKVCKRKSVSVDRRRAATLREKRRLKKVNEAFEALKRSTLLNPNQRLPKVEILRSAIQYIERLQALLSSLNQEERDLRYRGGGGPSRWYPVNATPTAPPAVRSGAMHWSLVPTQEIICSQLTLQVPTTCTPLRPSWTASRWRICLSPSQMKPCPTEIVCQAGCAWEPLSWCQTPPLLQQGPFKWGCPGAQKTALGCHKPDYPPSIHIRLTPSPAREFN

T4: Myogenin;E47 (Rattus norvegicus;Mus musculus, UniProt P20428;P15806-2 1-287;1-648, |)
T4 sequence 1: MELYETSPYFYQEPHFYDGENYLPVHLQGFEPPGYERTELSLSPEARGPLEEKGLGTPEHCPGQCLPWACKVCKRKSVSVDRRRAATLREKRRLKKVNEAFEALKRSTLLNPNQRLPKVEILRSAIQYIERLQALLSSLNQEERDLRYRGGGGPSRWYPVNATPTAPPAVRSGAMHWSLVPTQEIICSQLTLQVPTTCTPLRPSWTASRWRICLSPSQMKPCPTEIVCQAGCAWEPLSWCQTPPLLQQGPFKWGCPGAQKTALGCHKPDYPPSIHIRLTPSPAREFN
T4 sequence 2: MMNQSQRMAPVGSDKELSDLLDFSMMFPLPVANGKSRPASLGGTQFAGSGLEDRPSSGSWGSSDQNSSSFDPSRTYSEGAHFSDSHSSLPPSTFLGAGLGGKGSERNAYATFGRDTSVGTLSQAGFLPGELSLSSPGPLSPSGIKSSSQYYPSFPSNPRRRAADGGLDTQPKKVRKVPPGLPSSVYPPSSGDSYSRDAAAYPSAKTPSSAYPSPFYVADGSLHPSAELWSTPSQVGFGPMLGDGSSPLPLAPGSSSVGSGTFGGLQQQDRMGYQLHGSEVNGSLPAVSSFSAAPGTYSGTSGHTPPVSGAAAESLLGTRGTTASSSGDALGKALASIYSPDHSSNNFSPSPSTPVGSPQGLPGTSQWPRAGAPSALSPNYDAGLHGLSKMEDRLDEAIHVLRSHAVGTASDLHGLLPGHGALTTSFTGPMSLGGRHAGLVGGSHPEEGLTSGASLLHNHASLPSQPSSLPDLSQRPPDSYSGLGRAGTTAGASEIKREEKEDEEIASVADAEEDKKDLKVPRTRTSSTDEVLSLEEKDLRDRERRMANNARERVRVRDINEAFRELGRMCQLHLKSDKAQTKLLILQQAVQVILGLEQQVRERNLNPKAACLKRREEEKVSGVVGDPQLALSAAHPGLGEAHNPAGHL

T5: MRF4 (Rattus norvegicus, UniProt P19335 1-242)
T5 sequence: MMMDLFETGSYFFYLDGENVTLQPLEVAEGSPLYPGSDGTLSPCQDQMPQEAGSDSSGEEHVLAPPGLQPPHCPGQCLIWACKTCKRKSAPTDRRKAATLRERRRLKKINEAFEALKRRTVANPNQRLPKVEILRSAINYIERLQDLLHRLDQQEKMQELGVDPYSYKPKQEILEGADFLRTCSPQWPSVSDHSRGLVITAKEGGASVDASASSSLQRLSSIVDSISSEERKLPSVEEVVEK

T6: mut-Myogenin (Rattus norvegicus, UniProt P20428 1-287, R84K;K91R)
T6 sequence: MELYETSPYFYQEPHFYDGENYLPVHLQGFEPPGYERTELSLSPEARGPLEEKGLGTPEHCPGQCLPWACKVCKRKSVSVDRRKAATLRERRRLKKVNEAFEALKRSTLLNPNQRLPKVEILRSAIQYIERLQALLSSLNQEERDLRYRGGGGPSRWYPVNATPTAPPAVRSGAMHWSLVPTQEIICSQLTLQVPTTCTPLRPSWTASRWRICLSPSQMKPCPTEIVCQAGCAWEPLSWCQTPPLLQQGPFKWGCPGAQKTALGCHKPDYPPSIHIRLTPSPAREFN


Key:
Test in all cases: EMSA
MRF4;E47 = biological target: T1, MRF4;E47
Myogenin/MyoDb chimera = biological target: T2, Myogenin/MyoDb chimera
Myogenin = biological target: T3, Myogenin
MyoD = MyoD (Mus musculus, UniProt P10085 1-318)
MyoD/Myogeninb chimera = MyoD/Myogeninb chimera (Mus musculus; Rattus norvegicus basic …, UniProt P10085 1-101+P20428:74-93+122-318, internal_change)
MyoD;E47 [1] = biological target: T7, MyoD;E47 (Mus musculus;Mus musculus, UniProt P10085;P15806-2 1-318;1-648, |)
Myogenin;E47 [2] = biological target: T4, Myogenin;E47
MRF4 = biological target: T5, MRF4
mut-Myogenin = biological target: T6, mut-Myogenin
MyoD;E47 [3] = biological target: T7, MyoD;E47; remark: listed apart in the source
Myogenin;E47 [4] = biological target: T4, Myogenin;E47; remark: listed apart in the source

Row | Binder | Kd (MRF4;E47) [nM] | Kd (Myogenin/MyoDb chimera) [nM] | Kd (Myogenin) [nM] | Kd (MyoD) [nM] | Kd (MyoD/Myogeninb chimera) [nM] | Kd (MyoD;E47 [1]) [nM] | Kd (Myogenin;E47 [2]) [nM] | Kd (MRF4) [nM] | binding result (mut-Myogenin) | binding signal (MyoD;E47 [3]) [fold weaker than E-box] | binding signal (Myogenin;E47 [4]) [fold weaker than E-box] | binding result (MRF4)
1 | CATGGGGGCGGGAAGGGGCGGGGTCT (structured_DNA) [G'2 integrin DNA] | 19.5 ± 2.7 | 7.1 ± 1.9 | 30 ± 8 | 4.4 ± 2.5 | 6 ± 3.1 | 11.2 ± 4.3 | 8.5 ± 2 | 5.3 ± 1.3 | binds |  |  | 
2 | CTGAGGAGGGGCTGGAGGGACCAC (structured_DNA) [G'2 sMtCK DNA] |  |  |  |  |  |  |  |  |  | 15 | 128 | binds
3 | E-box DNA (dsDNA) DNA 1: TCGATCCCCCAACACCTGCTGCCTGA DNA 2: TCAGGCAGCAGGTGTTGGGGGACGA | 0.2 ± 0.1 |  | 25.4 ± 11 | 91.8 ± 1.6 |  | 1.7 ± 0.6 | 0.2 ± 0.1 | 21.3 ± 11 |  |  |  | 
